Laboratory results as given in PMC8408231, “The basic helix-loop-helix transcription factor TabHLH1 increases chlorogenic acid and luteolin biosynthesis in Taraxacum antungense Kitag”.

Target: T1, TabHLH1 (Taraxacum antungense Kitag, UniProt A0A482LNV1 1-521)
T1 sequence: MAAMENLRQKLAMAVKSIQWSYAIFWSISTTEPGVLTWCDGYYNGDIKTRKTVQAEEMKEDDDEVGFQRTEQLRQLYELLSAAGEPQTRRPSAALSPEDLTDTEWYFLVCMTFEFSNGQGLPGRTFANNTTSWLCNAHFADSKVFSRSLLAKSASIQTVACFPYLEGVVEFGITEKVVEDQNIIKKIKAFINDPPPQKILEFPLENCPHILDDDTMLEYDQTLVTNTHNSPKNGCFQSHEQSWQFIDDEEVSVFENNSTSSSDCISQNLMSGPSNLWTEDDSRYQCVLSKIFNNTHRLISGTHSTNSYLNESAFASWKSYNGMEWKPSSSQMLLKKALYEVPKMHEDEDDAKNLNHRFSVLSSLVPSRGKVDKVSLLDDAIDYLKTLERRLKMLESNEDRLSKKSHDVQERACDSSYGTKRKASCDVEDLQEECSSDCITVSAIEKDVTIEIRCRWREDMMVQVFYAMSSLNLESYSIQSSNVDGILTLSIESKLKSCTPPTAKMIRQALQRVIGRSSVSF
Assay: EMSA; unlabeled identical cold probe used as control; EMSA binding buffer (Beyotime, 10x stock), 25 °C, 30 min; salt and pH not stated
Details: protein: recombinant; tags: GST (pGEX4T-1); chain copies: 2; label: 3' biotin on both strands; blunt

B1: Ta4CL promoter E-box probe (dsDNA)
DNA 1: TGGCCAAAATCCCATGTGATTTCGGCCCAC
DNA 2: GTGGGCCGAAATCACATGGGATTTTGGCCA
- binding result: binds

B2: TaHQT2 promoter E-box probe (dsDNA)
DNA 1: CGAACGGAGGAACATGTGTGCTCTGAAAAT
DNA 2: ATTTTCAGAGCACACATGTTCCTCCGTTCG
- binding result: binds
